Data: patent publication US20260242735A1

Experiments:
human CD33 V25A (human) = human CD33 V25A (human) (UniProt P20138); assay: flow cytometry, alanine scan
human CD33 Q24A (human) = human CD33 Q24A (human) (UniProt P20138); assay: flow cytometry, alanine scan
human CD33 Q26A (human) = human CD33 Q26A (human) (UniProt P20138); assay: flow cytometry, alanine scan
human CD33 F44A (human) [1] = target: human CD33 F44A (human) (UniProt P20138); assay: flow cytometry, alanine scan
human CD33 K52F (human) = human CD33 K52F (human) (UniProt P20138); assay: flow cytometry, transfected cells, IgG
Chain of human CD33 K52F (human) (P20138 18-364 K52F limits assumed): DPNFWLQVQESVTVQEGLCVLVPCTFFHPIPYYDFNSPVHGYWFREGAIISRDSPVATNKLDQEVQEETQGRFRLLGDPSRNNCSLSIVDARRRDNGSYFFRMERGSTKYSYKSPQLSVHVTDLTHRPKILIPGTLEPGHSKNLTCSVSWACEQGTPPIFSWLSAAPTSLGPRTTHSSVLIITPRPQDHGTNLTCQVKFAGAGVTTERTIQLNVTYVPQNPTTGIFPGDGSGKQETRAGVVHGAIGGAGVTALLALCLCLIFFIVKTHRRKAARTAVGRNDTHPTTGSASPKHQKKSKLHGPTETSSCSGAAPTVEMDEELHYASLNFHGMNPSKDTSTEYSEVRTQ

human CD33 L134R (human) = human CD33 L134R (human) (UniProt P20138); assay: flow cytometry, transfected cells, IgG
Chain of human CD33 L134R (human) (P20138 18-364 L134R limits assumed): as the sequence (P20138 18-364 K52F limits assumed) above, with F35K, L117R counted along it

human CD33 C212A (human) [2] = target: human CD33 C212A (human) (UniProt P20138); assay: alanine scan, flow cytometry
Chain of human CD33 C212A (human) (P20138 18-364 C212A limits assumed): as the sequence (P20138 18-364 K52F limits assumed) above, with F35K, C195A counted along it

human CD33 L134A (human) = human CD33 L134A (human) (UniProt P20138); assay: alanine scan, flow cytometry, HEK293-T
Chain of human CD33 L134A (human) (P20138 18-364 L134A limits assumed): as the sequence (P20138 18-364 K52F limits assumed) above, with F35K, L117A counted along it

human CD33 Y129A (human) [3] = target: human CD33 Y129A (human) (UniProt P20138); assay: alanine scan, flow cytometry, HEK293-T
Chain of human CD33 Y129A (human) (P20138 18-364 Y129A limits assumed): as the sequence (P20138 18-364 K52F limits assumed) above, with F35K, Y112A counted along it

[4] = target: human CD33 variant Y129S (human) (UniProt P20138); assay: flow cytometry, IgG on cells expressing the mutant
Chain of human CD33 variant Y129S (human) (P20138 18-364 Y129S limits assumed): as the sequence (P20138 18-364 K52F limits assumed) above, with F35K, Y112S counted along it

human CD33 M120A (human) = human CD33 M120A (human) (UniProt P20138); assay: flow cytometry on HEK293-T, alanine scan
Chain of human CD33 M120A (human) (P20138 18-364 M120A limits assumed): as the sequence (P20138 18-364 K52F limits assumed) above, with F35K, M103A counted along it

human CD33 C101A (human) = human CD33 C101A (human) (UniProt P20138); assay: flow cytometry on HEK293-T, alanine scan
Chain of human CD33 C101A (human) (P20138 18-364 C101A limits assumed): as the sequence (P20138 18-364 K52F limits assumed) above, with F35K, C84A counted along it

human CD33 Y129A (human) [5] = target: human CD33 Y129A (human) (UniProt P20138); assay: flow cytometry on HEK293-T, alanine scan
human CD33 F44A (human) [6] = target: human CD33 F44A (human) (UniProt P20138); assay: alanine scan, flow cytometry
human CD33 C41A (human) = human CD33 C41A (human) (UniProt P20138); assay: alanine scan, flow cytometry
Chain of human CD33 C41A (human) (P20138 18-364 C41A limits assumed): as the sequence (P20138 18-364 K52F limits assumed) above, with C24A, F35K counted along it

human CD33 C212A (human) [7] = target: human CD33 C212A (human) (UniProt P20138); assay: alanine scan, flow cytometry, HEK293-T
[8] = target: human CD33 extracellular region F21L (human) (UniProt P20138); assay: BLI Octet, IgG captured on AHC, CD33 analyte
Chain of human CD33 extracellular region F21L (human) (P20138 other isoform, or with tags, fused parts or gaps F21L F21L): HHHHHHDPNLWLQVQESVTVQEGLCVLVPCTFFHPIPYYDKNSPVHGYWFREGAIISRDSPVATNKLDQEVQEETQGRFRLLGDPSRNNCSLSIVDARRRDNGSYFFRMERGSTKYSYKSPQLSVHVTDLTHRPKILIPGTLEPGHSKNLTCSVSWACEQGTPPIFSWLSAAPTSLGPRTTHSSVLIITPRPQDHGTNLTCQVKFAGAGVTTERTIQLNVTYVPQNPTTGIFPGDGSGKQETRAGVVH

[9] = target: human CD33 variant Y49S (human) (UniProt P20138); assay: flow cytometry, IgG on cells expressing the mutant
Chain of human CD33 variant Y49S (human) (P20138 18-364 Y49S limits assumed): as the sequence (P20138 18-364 K52F limits assumed) above, with Y32S, F35K counted along it

human CD33 V138A (human) = human CD33 V138A (human) (UniProt P20138); assay: flow cytometry on HEK293-T, alanine scan
Chain of human CD33 V138A (human) (P20138 18-364 V138A limits assumed): as the sequence (P20138 18-364 K52F limits assumed) above, with F35K, V121A counted along it

human CD33 V231A (human) = human CD33 V231A (human) (UniProt P20138); assay: alanine scan, flow cytometry, HEK293-T
Chain of human CD33 V231A (human) (P20138 18-364 V231A limits assumed): as the sequence (P20138 18-364 K52F limits assumed) above, with F35K, V214A counted along it

Chain of human CD33 F44A (human) (P20138 18-364 F44A limits assumed): as the sequence (P20138 18-364 K52F limits assumed) above, with F27A, F35K counted along it
Chain of human CD33 Q24A (human) (P20138 18-364 Q24A limits assumed): as the sequence (P20138 18-364 K52F limits assumed) above, with Q7A, F35K counted along it
Chain of human CD33 Q26A (human) (P20138 18-364 Q26A limits assumed): as the sequence (P20138 18-364 K52F limits assumed) above, with Q9A, F35K counted along it
Chain of human CD33 V25A (human) (P20138 18-364 V25A limits assumed): as the sequence (P20138 18-364 K52F limits assumed) above, with V8A, F35K counted along it

B1: Refmab #6 (antibody, human IgG1, V domains shown)
VH: QVQLQQPGAEVVKPGASVKMSCKASGYTFTSYYIHWIKQTPGQGLEWVGVIYPGNDDISYNQKFQGKATLTADKSSTTAYMQLSSLTSEDSAVYYCAREVRLRYFDVWGQGTTVTVSS
VL: EIVLTQSPGSLAVSPGERVTMSCKSSQSVFFSSSQKNYLAWYQQIPGQSPRLLIYWASTRESGVPDRFTGSGSGTDFTLTISSVQPEDLAIYYCHQYLSSRTFGQGTKLEIK
Q: What does the source list for B1?
A: Mean % WT Binding (human CD33 V25A (human)): 16.7 % of WT; Mean % WT Binding (human CD33 Q24A (human)): 18.1 % of WT; Mean % WT Binding (human CD33 Q26A (human)): 76.1 % of WT; Mean % WT Binding (human CD33 F44A (human) [1]): 14 % of WT; Mean % WT Binding (human CD33 K52F (human)): 2.5%; Mean % WT Binding (human CD33 L134R (human)): 1%; Mean % WT Binding (human CD33 C212A (human) [2]): 16.2 % WT binding; Mean % WT Binding (human CD33 L134A (human)): 19.5 % WT binding; Mean % WT Binding (human CD33 Y129A (human) [3]): 76.7 % WT binding

B2: Refmab #5 (antibody, human IgG1, V domains shown)
VH: QVQLVQSGAEVKKPGASVKVSCKASGYTFTNYDINWVRQAPGQGLEWIGWIYPGDGSTKYNEKFKAKATLTADTSTSTAYMELRSLRSDDTAVYYCASGYEDAMDYWGQGTTVTVSS
VL: DIQMTQSPSSLSASVGDRVTINCKASQDINSYLSWFQQKPGKAPKTLIYRANRLVDGVPSRFSGSGSGQDYTLTISSLQPEDFATYYCLQYDEFPLTFGGGTKVEIK
Q: Which results are given for B2?
A: Mean % WT Binding (human CD33 K52F (human)): 2.5%; Mean % WT Binding (human CD33 L134R (human)): 5%

B3: Refmab #3 (antibody, human IgG1, V domains shown)
VH: QVQLVQSGAEVKKPGSSVKVSCKASGYTFTDYNMHWVRQAPGQGLEWIGYIYPYNGGTGYNQKFKSKATITADESTNTAYMELSSLRSEDTAVYYCARGRPAMDYWGQGTLVTVSS
VL: DIQMTQSPSSLSASVGDRVTITCRASESVDNYGISFMNWFQQKPGKAPKLLIYAASNQGSGVPSRFSGSGSGTDFTLTISSLQPDDFATYYCQQSKEVPWTFGQGTKVEIK
Q: What does the source list for B3?
A: Mean % WT Binding [4]: 7.6 % of WT; Mean % WT Binding (human CD33 M120A (human)): 15.7 % WT binding; Mean % WT Binding (human CD33 C101A (human)): 13.6 % WT binding; Mean % WT Binding (human CD33 Y129A (human) [5]): 15.6 % WT binding; Mean % WT Binding (human CD33 F44A (human) [6]): 18.9 % WT

B4: Refmab #1 (antibody, human IgG1, V domains shown)
VH: EVQLVQSGAEVKKPGSSVKVSCKASGYTITDSNIHWVRQAPGQSLEWIGYIYPYNGGTDYNQKFKNRATLTVDNPTNTAYMELSSLRSEDTAFYYCVNGNPWLAYWGQGTLVTVSS
VL: DIQLTQSPSTLSASVGDRVTITCRASESLDNYGIRFLTWFQQKPGKAPKLLMYAASNQGSGVPSRFSGSGSGTEFTLTISSLQPDDFATYYCQQTKEVPWSFGQGTKVEVK
Q: B4 was tested. Which Mean % WT Binding (human CD33 C41A (human)) did it give?
A: 14 % WT

Q: What about the Mean % WT Binding (human CD33 C212A (human) [7]) of the same binder?
A: 17.2%

Q: And the % WT binding [8]?
A: 1.52%

B5: Refmab #4 (antibody, human IgG1, V domains shown)
VH: QVQLVQSGAEVKKPGESVKVSCKASGYTFTNYGMNWVKQAPGQGLEWMGWINTYTGEPTYADKFQGRVTMTTDTSTSTAYMEIRNLGGDDTAVYYCARWSWSDGYYVYFDYWGQGTSVTVSS
VL: DIVMTQSPDSLTVSLGERTTINCKSSQSVLDSSTNKNSLAWYQQKPGQPPKLLLSWASTRESGIPDRFSGSGSGTDFTLTIDSPQPEDSATYYCQQSAHFPITFGQGTRLEIK
Q: B5 was tested. Which Mean % WT Binding [9] did it give?
A: 9.8 % of WT

Q: And the Mean % WT Binding (human CD33 V138A (human))?
A: 54.1 % WT binding

Q: And the Mean % WT Binding (human CD33 V231A (human))?
A: 79.3%
